This experiment concerns the target full-length human HSP90β (residues 1–724), pET15b construct (human) (UniProt P08238). Description: cross-linking + other: mass photometry; DSS (0.5 mM) or glutaraldehyde (0.03%) added to HSP90β (15 μM), AIPL1 (25 μM) or their mixture (HSP90_(AMPPNP)/AIPL1), 15 to 30 min at 25 °C, 25 mM Hepes pH 7.5, 200 mM NaCl, 5% glycerol, 1 mM TCEP; products on 3 to 8% Tris-acetate gel and by mass photometry.

As a reminder, the stoichiometry N is the number of molecules, sites or subunits per partner or assembly.

Chain of full-length human HSP90β (residues 1–724), pET15b construct, P08238 1-724 (natural protein; other documents disagree on this pair) (P08238 whole entry, the tested form may be a part): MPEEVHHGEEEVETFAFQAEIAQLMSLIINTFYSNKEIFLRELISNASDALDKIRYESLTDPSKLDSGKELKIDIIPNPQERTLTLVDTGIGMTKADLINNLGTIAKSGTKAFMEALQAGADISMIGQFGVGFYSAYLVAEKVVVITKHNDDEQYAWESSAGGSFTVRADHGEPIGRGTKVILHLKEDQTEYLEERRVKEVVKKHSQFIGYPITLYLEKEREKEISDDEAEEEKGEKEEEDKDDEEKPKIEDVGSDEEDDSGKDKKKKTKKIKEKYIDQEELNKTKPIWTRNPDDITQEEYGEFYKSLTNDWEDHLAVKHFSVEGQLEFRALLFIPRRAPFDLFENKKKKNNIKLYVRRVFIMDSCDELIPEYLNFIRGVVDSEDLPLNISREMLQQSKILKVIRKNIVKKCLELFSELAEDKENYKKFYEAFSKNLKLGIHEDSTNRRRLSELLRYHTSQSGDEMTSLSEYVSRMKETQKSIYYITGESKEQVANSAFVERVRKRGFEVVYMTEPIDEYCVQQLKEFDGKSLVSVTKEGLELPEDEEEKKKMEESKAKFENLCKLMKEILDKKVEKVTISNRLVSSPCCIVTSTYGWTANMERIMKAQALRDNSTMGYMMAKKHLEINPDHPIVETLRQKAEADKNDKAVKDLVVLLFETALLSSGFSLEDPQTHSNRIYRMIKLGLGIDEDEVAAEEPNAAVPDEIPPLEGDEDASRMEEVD

Regarding “full-length human HSP90β (residues 1–724), pET15b construct, P08238 1-724 (natural protein; other documents disagree on this pair)”, the stoichiometry N stood at 2.

(Values after article PMC8857470, “Molecular insights into the maturation of phosphodiesterase 6 by the specialized chaperone complex of HSP90 with AIPL1” (The Journal of Biological Chemistry, 2022).)
